Measurements reported in patent publication CN116082499A.

What was measured:
[1] = target: DENV抗原 (DENV阳性血清) (dengue virus (DENV), serotype not stated); assay: sandwich ELISA, antibody at 12.5 ng/ml captured on goat anti-mouse IgG, DENV-positive serum, HRP-labelled DENV mAb
[2] = target: DENV抗原 (DENV阳性血清) (dengue virus (DENV), serotype not stated); assay: sandwich ELISA, antibody at 3.125 ng/ml captured on goat anti-mouse IgG, DENV-positive serum, HRP-labelled DENV mAb
[3] = target: DENV抗原 (DENV阳性血清) (dengue virus (DENV), serotype not stated); assay: sandwich ELISA, antibody at 6.25 ng/ml captured on goat anti-mouse IgG, DENV-positive serum, HRP-labelled DENV mAb
[4] = target: DENV-IV抗原(一种NS1蛋白，购自菲鹏) (dengue virus serotype 4 (DENV-IV)) (UniProt P09866)
Chain of UniProt P09866 (P09866 775-1126 limits assumed): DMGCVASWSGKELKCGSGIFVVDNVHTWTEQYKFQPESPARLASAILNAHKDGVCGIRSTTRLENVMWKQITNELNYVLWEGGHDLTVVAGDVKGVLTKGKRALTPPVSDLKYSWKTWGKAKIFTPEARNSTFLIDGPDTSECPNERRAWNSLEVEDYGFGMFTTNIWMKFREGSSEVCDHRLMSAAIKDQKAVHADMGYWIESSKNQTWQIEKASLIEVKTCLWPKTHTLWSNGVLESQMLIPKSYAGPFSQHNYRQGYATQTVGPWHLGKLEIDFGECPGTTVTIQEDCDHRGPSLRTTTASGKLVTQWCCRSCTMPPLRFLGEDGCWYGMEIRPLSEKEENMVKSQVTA

[5] = target: DENV抗原 (DENV阳性血清) (dengue virus (DENV), serotype not stated); assay: sandwich ELISA, antibody at 0 ng/ml (blank without antibody), goat anti-mouse IgG, DENV-positive serum, HRP-labelled DENV mAb
[6] = target: DENV抗原 (DENV阳性血清) (dengue virus (DENV), serotype not stated); assay: sandwich ELISA, antibody at 1.5625 ng/ml captured on goat anti-mouse IgG, DENV-positive serum, HRP-labelled DENV mAb
[7] = target: DENV抗原 (DENV阳性血清) (dengue virus (DENV), serotype not stated); assay: sandwich ELISA, antibody at 0.78125 ng/ml captured on goat anti-mouse IgG, DENV-positive serum, HRP-labelled DENV mAb

Q: 对照抗体 (antibody) was tested. Which OD (450nm, 参考630nm) [1] did it give?
A: The OD (450nm, 参考630nm) was 1.54 OD.

Q: What about the OD (450nm, 参考630nm) [2] of the same substance?
A: The OD (450nm, 参考630nm) was 0.692 OD.

Q: And the OD (450nm, 参考630nm) [3]?
A: The OD (450nm, 参考630nm) was 0.996 OD.

Q: What about the Kd [4] of the same substance?
A: The Kd was 0.811 µM.

Q: What about the koff [4] of the same substance?
A: Its koff is 0.0019 s⁻¹.

Q: What about the kon [4] of the same substance?
A: Its kon is 2340 M⁻¹ s⁻¹.

Q: What about the OD (450nm, 参考630nm) [5] of the same substance?
A: Its OD (450nm, 参考630nm) is 0.045 OD.

Q: And the OD (450nm, 参考630nm) [6]?
A: Its OD (450nm, 参考630nm) is 0.48 OD.

Q: And the OD (450nm, 参考630nm) [7]?
A: Its OD (450nm, 参考630nm) is 0.317 OD.
